The source of these data is patent US20090232804A1 (GLENMARK PHARMACEUTICALS S A, published 2009).

Assay [1] has as its target T1, His tagged A1 domain of rat von Willebrand factor, expressed in E. coli (rat, UniProt Q62935 13-256).
T1 construct: domain: A1 domain; also called His-A1 (rat); His-rA1; not shown: His tag from the pETDuet-1 vector
Nature of the assay: ratio of the kinetic constants (row printed as 'kon/koff'), DELFIA, 37 °C.

Assay [2] concerns the target T1, His tagged A1 domain of rat von …. Nature of the assay: DELFIA association kinetics, Eu-labelled antibody on plate-coated His-A1, 37 °C.
The target is the same in assay [3]. The assay is described as follows: homologous competition with Eu-NMC-4 chimera on plate-coated rat His-A1, DELFIA, Cheng-Prusoff, n = 3.
Method: Wells of Immulon-4 plates are coated with His-A1 domain of vWF from human (e.g., 25 ng in 100 μl/well in 30 mM Tris, pH 7.4 and 300 mM NaCl or divalent cation-free PBS) or rat (e.g., 50 ng/well) by incubating overnight at 4° C. The plates are washed three times with Wash Buffer (e.g., 50 mM HEPES, pH 7.4, 150 mM NaCl, 0.5% Tween-20), blocked with 300 μl/well Blocking Buffer (e.g., Wash Buffer containing 3.0 mg/ml IgG-free BSA and 0.1% sodium azide) for 1 hour at room temperature and washed 5 times with Wash Buffer before use.
Competitive binding studies may be performed to determine Ki values (e.g., a measure of relative affinity for antigen). […] The final concentration of europium-labeled antibody is 100 pM.
For assay [4] the target is unchanged. Nature of the assay: calculated from koff, DELFIA kinetics on plate-coated His-A1, 37 °C.
For assay [5] the target is unchanged. The assay is described as follows: equilibrium binding (Scatchard), Eu-labelled antibody on direct-coated His-A1, DELFIA, 37 °C, n = 5.
Method: Equilibrium binding assays are performed as follows. Eu-antibody is pre-diluted into Binding Buffer (e.g., Wash buffer containing 100 μg/ml IgG-free BSA and 0.1% sodium azide) and applied to wells (e.g., 10 μl/well) of a 96-well plate and the plates sealed with SEALPLATE film. The plates are shaken (e.g., Titer Plate Shaker speed setting of 4 for ≧15 sec or 60 sec at RT), placed into nalgene boxes containing wet paper towels, and incubated in the closed boxes for 2 hours at 37° C. For the measurement of free label, supernatant samples (4.0 μl) are transferred from the wells containing binding mixtures into a parallel set of wells containing DELFIA Enhancement Solution (100 μl/well). To assess bound antibody, the A1-coated wells with the remaining binding mixtures are washed five times with Wash Buffer, tapped dry onto paper towels and DELFIA Enhancement Solution (100 μl/well) added to the empty wells for the measurement of bound label. For assay calibration, DELFIA Enhancement Solution (100 μl/well) is added to unused wells and Europium Standard (1.0 μl/well) is added. The plates are shaken (e.g., Titer Plate Shaker speed setting of 5 for 10 minutes at room temperature), and time-resolved fluorescent (TRF) intensities are read using a Victor2 multi-label plate reader (Perkin-Elmer Wallac, Boston, Mass.). […]

B1: NMC-4-human Fc chimera (NMC-4 variable regions on human IgG1(dm) and human kappa constant regions) (antibody, V domains shown)
VH: QVQLKESGPGLVAPSQSLSITCTVSGFSLTDYGVDWVRQPPGKGLEWLGMIWGDGSTDYNSALKSRLSITKDNSKSQVFLKMNSLQTDDTARYYCVRDPADYGNYDYALDYWGQGTSVTVSS
VL: DIQMTQSPSSLSASLGDRVTISCSASQDINKYLNWYQQKPDGAVKLLIFYTSSLHSGVPSRFSGSGSGTDYSLTISNLEPEDIATYYCQQYEKLPWTFGGGTKLEVK
notes: Heavy constant region is human IgG1 with L235E, E318A, K320A, K332A (IgG1(dm)); also called NMC-4 chimera; NMC4 chimera
Take B1: the Kd in assay [1] worked out at 0.7 nM; in assay [5], 0.276 nM. In assay [2], this molecule came in with a kon of 233000 M⁻¹ s⁻¹. The affinity in assay [3], expressed as Ki, was 0.297 nM. Further, the Dissociation half-life in assay [4] was 69 min.
